# Positions count from the first letter of the chain named. Names may count otherwise.
# T1: human C1s (human, UniProt P09871 16-688)
# T1 construct: also called hC1s; serum-derived human C1s (CompTech)
# T1 sequence: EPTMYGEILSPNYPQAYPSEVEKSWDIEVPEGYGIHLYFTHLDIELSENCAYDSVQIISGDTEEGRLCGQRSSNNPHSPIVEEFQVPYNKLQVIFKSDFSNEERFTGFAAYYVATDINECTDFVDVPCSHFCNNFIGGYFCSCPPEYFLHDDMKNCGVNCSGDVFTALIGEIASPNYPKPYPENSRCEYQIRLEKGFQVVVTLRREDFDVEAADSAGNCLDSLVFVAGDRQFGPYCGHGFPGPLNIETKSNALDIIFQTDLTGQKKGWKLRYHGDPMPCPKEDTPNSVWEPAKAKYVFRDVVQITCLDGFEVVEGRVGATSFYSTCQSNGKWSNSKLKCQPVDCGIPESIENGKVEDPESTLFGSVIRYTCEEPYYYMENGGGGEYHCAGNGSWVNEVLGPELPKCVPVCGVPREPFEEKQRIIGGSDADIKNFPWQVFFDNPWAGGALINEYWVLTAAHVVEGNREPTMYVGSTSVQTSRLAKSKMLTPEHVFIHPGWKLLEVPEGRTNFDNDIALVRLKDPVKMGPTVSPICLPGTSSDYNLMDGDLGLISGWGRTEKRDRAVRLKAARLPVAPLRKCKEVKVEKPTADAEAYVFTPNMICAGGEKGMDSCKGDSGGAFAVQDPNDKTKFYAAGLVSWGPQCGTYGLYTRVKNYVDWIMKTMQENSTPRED
# T2: human C1s (human, UniProt P09871 16-688)
# T2 construct: Analyte in the Biacore assays; also called hC1s; serum-derived human C1s (CompTech)
# T2 sequence: T1 sequence
# B1: C1_IPN92H0166-SG4GK/IPN93L0024-SK1 (antibody, human IgG4 S228P, kappa, name in Kabat numbering, V domains shown)
# VH: EVMLVESGGGLVKPGGSLRLSCAASGFTFSNYAMSWVRQAPGKGLEWVATISSGGSHTYYEDSVKGRFTISRDNSKDTLYLQMNSLRAEDTALYYCARLFTGHAMDYWGQGTLVTVSS
# VL: QIVLTQSPATLSLSPGERATLSCTASSSVSSSYLHWYQQKPGKAPKLWIYSTSNLASGVPSRFSGSGSGTDYTLTISSLQPEDFATYYCHQYYRLHPITFGQGTKLEIKR
# notes: also called IPN92H0166/IPN93L0024
# B2: C1_IPN92H0188-SG4GK/IPN93L0024-SK1 (antibody, human IgG4 S228P, kappa, name in Kabat numbering, V domains shown)
# VH: B1 VH with E61L, K65D
# VL: B1 VL
# notes: also called IPN92H0188/IPN93L0024
# B3: C1_IPN92H0231-SG4GK/IPN93L0024-SK1 (antibody, human IgG4 S228P, kappa, name in Kabat numbering, V domains shown)
# VH: B1 VH with E61L, G102K
# VL: B1 VL
# notes: also called IPN92H0231/IPN93L0024
# B4: C1_IPN92H0232-SG4GK/IPN93L0024-SK1 (antibody, human IgG4 S228P, kappa, name in Kabat numbering, V domains shown)
# VH: B1 VH with E61L, G102R
# VL: B1 VL
# notes: also called IPN92H0232/IPN93L0024
# B5: C1_IPN92H0282-SG4GK/IPN93L0024-SK1 (antibody, human IgG4 S228P, kappa, name in Kabat numbering, V domains shown)
# VH: B1 VH with Y60E, E61L, K65D, G66E, G102K
# VL: B1 VL
# notes: also called IPN92H0282/IPN93L0024
# B6: C1_IPN92H0281-SG4GK/IPN93L0091-SK1 (antibody, human IgG4 S228P, kappa, name in Kabat numbering, V domains shown)
# VH: B1 VH with H57K, Y60E, E61L, K65D, G66E, G102K
# VL: B1 VL with Y33R
# notes: also called IPN92H0281/IPN93L0091
# B7: C1_IPN92H0253-SG4GK/IPN93L0024-SK1 (antibody, human IgG4 S228P, kappa, name in Kabat numbering, V domains shown)
# VH: B1 VH with E61L, D106K
# VL: B1 VL
# notes: also called IPN92H0253/IPN93L0024
# B8: C1_IPN92H0194-SG4GK/IPN93L0024-SK1 (antibody, human IgG4 S228P, kappa, name in Kabat numbering, V domains shown)
# VH: B1 VH with E61L, G66E
# VL: B1 VL
# notes: also called IPN92H0194/IPN93L0024
# B9: C1_IPN92H0281-SG4GK/IPN93L0024-SK1 (antibody, human IgG4 S228P, kappa, name in Kabat numbering)
# heavy: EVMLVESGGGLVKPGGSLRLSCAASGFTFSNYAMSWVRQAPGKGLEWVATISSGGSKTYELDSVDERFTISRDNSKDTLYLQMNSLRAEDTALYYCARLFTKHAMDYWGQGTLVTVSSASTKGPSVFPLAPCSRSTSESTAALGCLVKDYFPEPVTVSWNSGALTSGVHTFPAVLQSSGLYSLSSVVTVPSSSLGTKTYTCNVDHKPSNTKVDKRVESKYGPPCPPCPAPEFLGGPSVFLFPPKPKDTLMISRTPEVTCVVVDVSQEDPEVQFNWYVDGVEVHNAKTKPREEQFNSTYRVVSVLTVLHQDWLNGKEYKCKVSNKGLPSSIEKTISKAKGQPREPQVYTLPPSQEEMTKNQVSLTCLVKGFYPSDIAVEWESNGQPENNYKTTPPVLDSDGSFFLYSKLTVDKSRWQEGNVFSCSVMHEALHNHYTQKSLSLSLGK
# light: QIVLTQSPATLSLSPGERATLSCTASSSVSSSYLHWYQQKPGKAPKLWIYSTSNLASGVPSRFSGSGSGTDYTLTISSLQPEDFATYYCHQYYRLHPITFGQGTKLEIKRTVAAPSVFIFPPSDEQLKSGTASVVCLLNNFYPREAKVQWKVDNALQSGNSQESVTEQDSKDSTYSLSSTLTLSKADYEKHKVYACEVTHQGLSSPVTKSFNRGEC
# notes: also called IPN92H0281/IPN93L0024
# B10: C1_IPN92H0279-SG4GK/IPN93L0091-SK1 (antibody, human IgG4 S228P, kappa, name in Kabat numbering, V domains shown)
# VH: B1 VH with Y60E, E61L, G66E, G102K
# VL: B1 VL with Y33R
# notes: also called IPN92H0279/IPN93L0091
# B11: C1_IPN92H0286-SG4GK/IPN93L0205-SK1 (antibody, human IgG4 S228P, kappa, name in Kabat numbering)
# heavy: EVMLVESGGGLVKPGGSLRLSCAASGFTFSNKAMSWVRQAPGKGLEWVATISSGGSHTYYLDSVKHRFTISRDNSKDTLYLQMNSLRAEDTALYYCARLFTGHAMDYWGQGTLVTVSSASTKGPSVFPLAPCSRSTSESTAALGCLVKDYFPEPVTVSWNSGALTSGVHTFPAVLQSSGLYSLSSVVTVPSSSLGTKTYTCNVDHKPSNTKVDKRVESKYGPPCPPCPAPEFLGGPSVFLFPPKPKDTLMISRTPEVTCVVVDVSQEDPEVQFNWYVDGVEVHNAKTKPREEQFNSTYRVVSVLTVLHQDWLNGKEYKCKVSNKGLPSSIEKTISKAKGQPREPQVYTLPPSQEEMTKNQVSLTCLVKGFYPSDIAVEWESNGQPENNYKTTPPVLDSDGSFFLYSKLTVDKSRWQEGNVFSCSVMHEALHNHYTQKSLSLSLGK
# light: B9 light with Y33R, Y93H, L95H, H96P
# notes: also called IPN92H0286/IPN93L0205
# B12: C1_IPN92H0261-SG4GK/IPN93L0091-SK1 (antibody, human IgG4 S228P, kappa, name in Kabat numbering, V domains shown)
# VH: B1 VH with Y60E, E61L, G102K
# VL: B1 VL with Y33R
# notes: also called IPN92H0261/IPN93L0091
# B13: C1_IPN92H0288-SG4GK/IPN93L0212-SK1 (antibody, human IgG4 S228P, kappa, name in Kabat numbering, V domains shown)
# VH: B1 VH with Y60E, E61L, K65D, G102K
# VL: B1 VL with S28E, S31E, Y33R
# notes: VH = IPN009VH2 with Y59E/K64D/G98K/Y99H (Kabat); also called IPN92H0288/IPN93L0212
# B14: C1_IPN92H0282-SG4GK/IPN93L0091-SK1 (antibody, human IgG4 S228P, kappa, name in Kabat numbering, V domains shown)
# VH: B1 VH with Y60E, E61L, K65D, G66E, G102K
# VL: B1 VL with Y33R
# notes: also called IPN92H0282/IPN93L0091
# B15: C1_IPN92H0193-SG4GK/IPN93L0024-SK1 (antibody, human IgG4 S228P, kappa, name in Kabat numbering, V domains shown)
# VH: B1 VH with E61L, G66D
# VL: B1 VL
# notes: also called IPN92H0193/IPN93L0024
# B16: C1_IPN92H0033-SG4GK/IPN93L0024-SK1 (antibody, human IgG4 S228P, kappa)
# heavy: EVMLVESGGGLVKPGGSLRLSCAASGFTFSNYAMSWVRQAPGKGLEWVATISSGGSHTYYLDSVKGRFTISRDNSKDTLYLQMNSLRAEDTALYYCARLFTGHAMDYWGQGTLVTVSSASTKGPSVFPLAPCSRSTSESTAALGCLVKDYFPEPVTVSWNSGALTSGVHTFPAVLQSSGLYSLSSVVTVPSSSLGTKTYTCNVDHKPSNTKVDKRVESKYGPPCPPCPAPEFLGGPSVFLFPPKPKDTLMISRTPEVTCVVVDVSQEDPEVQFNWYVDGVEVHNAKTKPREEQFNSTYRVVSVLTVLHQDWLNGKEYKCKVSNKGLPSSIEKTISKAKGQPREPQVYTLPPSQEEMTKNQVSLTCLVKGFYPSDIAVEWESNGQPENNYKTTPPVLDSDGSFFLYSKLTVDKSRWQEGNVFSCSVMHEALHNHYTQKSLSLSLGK
# light: B9 light
# notes: VH Y99H, VL P95H against the parent (Kabat); also called IPN92H0033/IPN93L0024
# B17: C1_IPN92H0033-SG4GK/IPN93L0072-SK1 (antibody, human IgG4 S228P, kappa, name in Kabat numbering, V domains shown)
# VH: B1 VH with E61L
# VL: B1 VL with S30K
# notes: VL substitutions from IPN009VK3, Kabat numbering; also called IPN92H0033/IPN93L0072
# B18: C1_IPN92H0033-SG4GK/IPN93L0090-SK1 (antibody, human IgG4 S228P, kappa, name in Kabat numbering, V domains shown)
# VH: B1 VH with E61L
# VL: B1 VL with Y33K
# notes: VL substitutions from IPN009VK3, Kabat numbering; also called IPN92H0033/IPN93L0090
# B19: C1_IPN92H0061-SG4GK/IPN93L0024-SK1 (antibody, human IgG4 S228P, kappa, name in Kabat numbering, V domains shown)
# VH: B1 VH with F29K, E61L
# VL: B1 VL
# notes: Substitutions from IPN009VH2, Kabat numbering; also called IPN92H0061/IPN93L0024
# Columns and labels:
# [1] = biological target: T1, human C1s; test: SPR, Ab captured; pH 7.4, 1.2 mM Ca
# Method: (§1) Each antibody was captured onto the sensor surface by protein A/G. Antibody capture levels were aimed at 200 resonance unit (RU). Serum-derived human C1s (CompTech) or recombinant C1s prepared in EXAMPLE 1 was injected at 50 nM, followed by dissociation. The sensor surface was regenerated in each cycle with 10 mM Glycine-HCl, pH 1.5. […] The ratio of KD 5.8+ to KD 7.4+(“KD 5+/7+”) and that of KD 5.8− to KD 7.4+(“KD 5−/7+”) were calculated. When the KD 5+/7+ or KD 5−/7+ of a variant is larger than that of the parent antibody IPN009VH2-SG4GK/IPN009VK3-SK1, that variant is considered to be “pH”- or “pH and Ca”-dependent, respectively. When binding response in 5(+) buffer and/or in 5(−) buffer of a variant is much lower than that of IPN09VH2/IPN009VK3, that variant is also considered as “pH”- and/or “pH and Ca”-dependent. Therefore, such mutations are effective to generate “pH”- and/or “pH and Ca”-dependent antibody. To further enhance “pH” and/or “pH and Ca” dependency, a combination of histidine mutations was conducted. Antibodies with combinations of histidine mutations were evaluated using Biacore by the method described above.
# (§2) C1_1IPN92H0033 (SEQ ID NO: 17)-SG4GK/IPN93L0024 (SEQ ID NO: 18)-SK1 (IPN92H0033/IPN93L0024) was selected for further optimization. Histidine, Lysine, Arginine, aspartic acid, glutamic acid, and glutamine scanning was conducted for CDRs and certain positions of FRs of IPN92H0033/IPN93L0024. Variants with a mutation were generated and purified, and evaluated using Biacore by the method mentioned above. All variants were evaluated using Biacore as mentioned above. Mutations that improved “pH” and/or “pH and Ca” dependency were selected for the combination.
# [2] = biological target: T2, human C1s; test: SPR (Biacore T200, 37C), Ab captured on protein A/G; pH 5.8, 1.2 mM Ca
# Method: as §1, §2
# [3] = biological target: T2, human C1s; test: SPR; KD at pH 5.8 (1.2 mM Ca) over KD at pH 7.4 (1.2 mM Ca)
# Method: as §1, §2
# [4] = biological target: T2, human C1s; test: SPR; KD at pH 5.8 (3 uM Ca) over KD at pH 7.4 (1.2 mM Ca)
# Method: as §1, §2
# [5] = biological target: T2, human C1s; test: SPR (Biacore T200, 37C), Ab captured on protein A/G; pH 5.8, 3 uM Ca
# Method: as §1, §2
Binder,Kd [1] [nM],koff [1] [s⁻¹],kon [1] [M⁻¹ s⁻¹],also measured
B1,1.76,0.000518,294000,
B2,2.03,0.000551,271000,
B3,1.3,0.000577,444000,
B4,1.5,0.000609,406000,
B5,1.65,0.000632,383000,
B6,4.72,0.00216,457000,
B7,0.121,6.9e-05,569000,
B8,0.885,0.000468,529000,
B9,2.52,0.001,396000,
B10,0.686,0.000897,1.31e+06,
B11,1.58,0.00156,984000,
B12,0.985,0.000774,786000,
B13,1.81,0.00117,648000,
B14,1.96,0.000924,471000,
B15,0.925,0.000474,513000,
B16,,,,koff [2]: 0.0045 s⁻¹; kon [2]: 519000 M⁻¹ s⁻¹; KD 5(+)/7(+) [3]: 3; KD 5(-)/7(+) [4]: 1.83
B17,,,,Kd [5]: 5.72 nM; koff [5]: 0.00553 s⁻¹; kon [5]: 967000 M⁻¹ s⁻¹; Kd [2]: 9.12 nM; koff [2]: 0.00529 s⁻¹; kon [2]: 530000 M⁻¹ s⁻¹; KD 5(+)/7(+) [3]: 6.7; KD 5(-)/7(+) [4]: 4.18
B18,,,,Kd [5]: 7.18 nM; koff [5]: 0.00427 s⁻¹; kon [5]: 595000 M⁻¹ s⁻¹; Kd [2]: 9.52 nM; koff [2]: 0.0055 s⁻¹; kon [2]: 577000 M⁻¹ s⁻¹; KD 5(+)/7(+) [3]: 6.8; KD 5(-)/7(+) [4]: 5.13
B19,,,,Kd [5]: 5.43 nM; koff [5]: 0.00344 s⁻¹; kon [5]: 633000 M⁻¹ s⁻¹; Kd [2]: 11.9 nM; koff [2]: 0.022 s⁻¹; kon [2]: 1.85e+06 M⁻¹ s⁻¹; KD 5(+)/7(+) [3]: 1.7; KD 5(-)/7(+) [4]: 0.79

# From patent US20210032365A1 (Chugai, published 2021)
